Data on 4 substances can be found in article PMC2139889.

pIC50: −log10 of the molar value.

The experiment has as its target GPI-anchored urokinase receptor (uPAR) on U937 cells (human (endogenous in U937)) (UniProt Q03405). Kind of experiment: radioligand binding.
Chain of UniProt Q03405 (Q03405 23-305): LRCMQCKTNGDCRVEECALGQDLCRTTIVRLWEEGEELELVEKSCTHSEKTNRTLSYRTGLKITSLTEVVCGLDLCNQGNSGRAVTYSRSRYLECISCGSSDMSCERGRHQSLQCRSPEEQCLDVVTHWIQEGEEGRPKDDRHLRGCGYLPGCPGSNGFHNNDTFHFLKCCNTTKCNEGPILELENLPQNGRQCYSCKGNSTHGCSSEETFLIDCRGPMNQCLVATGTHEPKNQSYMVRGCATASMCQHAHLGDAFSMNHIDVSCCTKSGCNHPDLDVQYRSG
As to “histidine-tagged pro-uPA with Ser138 and Ser303 replaced by Glu (enzyme)”, the pIC50 was 9.40.

In the case of “histidine-tagged pro-uPA with Ser138 replaced by Glu (enzyme)”, the pIC50 was 9.40.

“histidine-tagged wild-type pro-uPA (enzyme)” gave a pIC50 of 9.40.

For the substance human urinary uPA (enzyme), the pIC50 was 9.40.

A word on the pIC50: it is the IC50 on a negative log10 scale, so that one unit is a factor of ten. High values mean a low IC50, low ones a high IC50.
